Measured values as given in patent US20090275502A1, “METHODS AND COMPOSITIONS FOR ENHANCING DEVELOPMENTAL POTENTIAL OF OOCYTES AND PREIMPLANTATION EMBRYOS” (MOUNT SINAI HOSPITAL, priority 2005, published 2009).

Legend:
Format in all cases: cell-based, mouse
FVB oocytes [1] = experiment: Reactive oxygen species (H2DCFDA) content of FVB oocytes; details: co-treatment of FVB oocytes; inhibitor 2 μg ml^−1, 30 min; data not shown
Protocol: Reduced glutathione (GSH) content: Quantitation of cellular GSH was assayed by use of monochlorobimane (Molecular Probes, Eugene, Oreg.), a cell-permeant dye that becomes fluorescent upon conjugation to thiol groups (Nasr-Esfahani and Johnson 1992). One group of untreated oocytes served as a control for measuring baseline GSH levels, whereas two other groups of oocytes were treated with I mM hydrogen peroxide (Sigma). For the latter, one group was exposed to hydrogen peroxide for 90 min (oxidative insult) whereas the second group was incubated with hydrogen peroxide for 30 min and transferred to fresh culture medium without hydrogen peroxide for an additional 60 min (recovery after oxidative insult). During the last 15 min of incubation, monochlorobimane was added to a final concentration of 1 mM, after which the oocytes were washed in fresh culture medium. Imaging and micrograph analyses were then conducted using a deconvolution microscope equipped with a cyan fluorescent protein filter. The average fluorescence intensities were tabulated on a per oocyte basis, and the data were then compiled per group. Reactive oxygen species: Formation of ROS was determined through the use of 2′,7′-dichlorodihydrofluorescein diacetate (H2DCFDA; Molecular Probes) as described (Yang et al. 1998). The H2DCFDA dye is membrane permeant, and upon entering the cell the acetate groups are hydrolyzed, creating a membrane impermeant form of the dye (H2DCF). Endogenous ROS oxidize this polar form of the dye to a quantifiable fluorogenic compound (DCF). Oocytes were mixed with a freshly prepared solution of 0.01 M H2DCFDA and incubated for 15 min. After extensive washing in fresh culture medium, imaging was carried out using a deconvolution microscope with a FITC filter. Total light intensity for each optical section and average light intensity for each oocyte were determined using the Delta Vision Software Analysis program. In order to determine baseline fluorescence, control oocytes (unstained) were incubated with an appropriate volume of vehicle (DMSO) prior to imaging. […]

B6C3F1 oocytes = experiment: Apoptosis in cultured B6C3F1 oocytes after microinjection
Protocol: (§1) Oocyte isolation and culture: Oocytes were collected after superovulation as described (Perez et al. 1997; Perez et al. 1999; Morita et al. 2000). Briefly, ovulated oocytes were denuded of cumulus cells by a 1-min incubation in 80 IU ml of hyaluronidase (Sigma, St. Louis, Mo.), followed by three washes with culture medium. All cultures were carried out in human tubal fluid (Irvine Scientific, Santa Ana, Calif.) supplemented with 0.5% BSA. The oocytes were maintained in 0.1 ml drops of culture medium under paraffin oil, and incubated at 37° C. in a humidified atmosphere of 5% CO2 and 95% air.
(§2) In-vitrofertilization and embryo culture: Female mice were superovulated as described above and cumulus-oocyte complexes from the indicated strains were mixed with capacitated sperm collected from adult male mice of the respective strain for in-vitro fertilization (Morita et al. 2000). […] Since zygotes progress to the blastocyst stage of development within 96 h and begin hatching, embryos were fixed at this time and stained with the DNA-binding dye Hoechst 33342 (Sigma) for light and fluorescence microscopic analysis of blastocyst cell number and quality. […] Analysis of DNA “comets” to generate quantitative data on the percent of undamaged versus damaged DNA was performed using the VisComet program (Impuls Computergestutzte Bildanalyse GmbH, Gilching, Germany). […]

FVB oocytes [2] = experiment: Electron microscopy of mitochondrial ultrastructure in FVB oocytes; details: 10 mM, 3 h; versus vehicle
Protocol: Electron microscopy: Oocytes were cultured without or with pyruvate (10 mM) for 3 h prior to being fixed for EM tomography. The oocytes were embedded in agarose and prepared for tomography using conventional protocols for good structural preservation (Ricci et al. 2004). To survey the preservation quality of the oocytes, thin-sectioned materials (−80 nm) were examined using a JEOL 1200FX electron microscope. Three-dimensional reconstructions of portions of the cell containing mitochondria were generated using standard techniques (Perkins et al. 2003). Sections with a thickness between 300-500 nm were cut out, and stained for 30 min in 2% aqueous uranyl acetate, followed by 30 min in lead salts. Next, fiducial cues consisting of 20 nm colloidal gold particles were deposited on both sides of each section.
For each reconstruction, a series of images at regular tilt increments were collected with a JEOL 4000EX intermediate-voltage electron microscope operated at 400 kV. In order to limit anisotropic specimen thinning during image collection, the specimens were irradiated before initiating a tilt series. […] Tilt series were recorded at a magnification of 20,000× with an angular increment of 2° from −60° to +60° about an axis perpendicular to the optical axis of the microscope using a computer-controlled goniometer to achieve accurate increments at each angular step. […]

AKR/J zygotes = experiment: Preimplantation embryonic development of in-vitro fertilized AKR/J oocytes to the blastocyst stage
Protocol: In-vitrofertilization and embryo culture: Female mice were superovulated as described above and cumulus-oocyte complexes from the indicated strains were mixed with capacitated sperm collected from adult male mice of the respective strain for in-vitro fertilization (Morita et al. 2000). After 2 h, the cumulus-oocyte complexes were washed and maintained in KSOM medium (Specialty Media, Phillipsburg, N.J.) to determine fertilization rates and monitor embryonic progression. Since zygotes progress to the blastocyst stage of development within 96 h and begin hatching, embryos were fixed at this time and stained with the DNA-binding dye Hoechst 33342 (Sigma) for light and fluorescence microscopic analysis of blastocyst cell number and quality. Apoptosis analyses: Oocytes were evaluated as described (Perez et al. 1997; Perez et al. 1999; Mortia et al. 2000) for characteristics of apoptosis, including morphological changes (e.g., cellular condensation, budding and fragmentation) and biochemical alterations (i.e., DNA cleavage using Comet Assay Kit; Trevigen, Gaithersburg, Md.). Analysis of DNA “comets” to generate quantitative data on the percent of undamaged versus damaged DNA was performed using the VisComet program (Impuls Computergestutzte Bildanalyse GmbH, Gilching, Germany). […]

AKR/J oocytes [3] = experiment: Apoptosis in cultured AKR/J oocytes; details: microinjection; versus non-injected and BSA-injected oocytes
Protocol: as §1, §2

FVB oocytes [4] = experiment: Apoptosis in cultured FVB oocytes; details: microinjection; 24 h in vitro
Protocol: as §1, §2

AKR/J oocytes [5] = experiment: Comet assay of DNA damage in cultured AKR/J oocytes after microinjection; details: 6 h culture after microinjection, versus non-injected AKR/J oocytes
Protocol: as §1, §2

Molecule: antimycin-A
- reduction of ROS content (FVB oocytes [1]): 70%

Molecule: CC[C@H]1/C=C/C=C/C[C@@H](C)[C@H](O)[C@@](C)(O)C(=O)[C@@H](C)[C@H](O)[C@@H](C)C(=O)[C@@H](C)[C@H](O)[C@@H](C)/C=C/C(=O)O[C@@H]2[C@H](C)[C@H](CC1)O[C@]1(CC[C@H](C)[C@H](C[C@@H](C)O)O1)[C@H]2C [oligomycin]
- reduction of ROS content (FVB oocytes [1]): 70%

Molecule: C=C(C)[C@H]1Cc2c(ccc3c2O[C@@H]2COc4cc(OC)c(OC)cc4[C@@H]2C3=O)O1 [rotenone]
- reduction of ROS content (FVB oocytes [1]): 54%

Molecule: cytochrome c: cytochrome c microinjected into oocytes (6 pl of a 400 μM stock)
- apoptosis in B6C3F1 oocytes (B6C3F1 oocytes; subsequent 24 h culture): did not affect the incidence of apoptosis

Molecule: CC(=O)C(=O)O [pyruvate]
- reduction in number of abnormal mitochondria in FVB oocytes (FVB oocytes [2]): more than 75%

B1: Rad51: recombinant Rad51 DNA repair protein (Kurumizaka et al. 1999), microinjected (protein, UniProt Q06609 2-339, looked up)
DNA repair protein RAD51 …: AMQMQLEANADTSVEEESFGPQPISRLEQCGINANDVKKLEEAGFHTVEAVAYAPKKELINIKGISEAKADKILAEAAKLVPMGFTTATEFHQRRSEIIQITTGSKELDKLLQGGIETGSITEMFGEFRTGKTQICHTLAVTCQLPIDRGGGEGKAMYIDTEGTFRPERLLAVAERYGLSGSDVLDNVAYARAFNTDHQTQLLYQASAMMVESRYALLIVDSATALYRTDYSGRGELSARQMHLARFLRMLLRLADEFGVAVVITNQVVAQVDGAAMFAADPKKPIGGNIIAHASTTRLYLRKGRGETRICKIYDSPCLPEAEAMFAINADGVGDAKD
- blastocyst formation rates of AKR/J zygotes (AKR/J zygotes; microinjection into AKR/J zygotes, compared with C57BL/6 zygotes): levels not different from those observed with C57BL/6 zygotes
- microinjected AKR/J zygotes completing development to the blastocyst stage (AKR/J zygotes; microinjection into fertilized AKR/J oocytes, untreated less than 10%): more than 30%
- apoptosis in AKR/J oocytes (AKR/J oocytes [3]): significantly suppressed apoptosis
- incidence of apoptosis in FVB oocytes (FVB oocytes [4]): no effect
- extent of DNA damage (AKR/J oocytes [5]): decreased the extent of DNA damage

B2: Smac/DIABLO: recombinant death-promoting protein released along with cytochrome c from mitochondria (protein, UniProt Q9NR28 22-239, looked up)
Diablo IAP-binding …: LCVPVVANFKKRCFSELIRPWHKTVTIGFGVTLCAVPIAQKSEPHSLSSEALMRRAVSLVTDSTSTFLSQTTYALIEAITEYTKAVYTLTSLYRQYTSLLGKMNSEEEDEVWQVIIGARAEMTSKHQEYLKLETTWMTAVGLSEMAAEAAYQTGADQASITARNHIQLVKLQVEEVHQLSRKAETKLAEAQIEELRQKTQEEGEERAESEQEAYLRED
- increase in incidence of apoptosis in B6C3F1 oocytes (B6C3F1 oocytes; 24 h culture): ~3 fold
